IntAct's records for PubMed 18832153

B1: Structural maintenance of chromosomes protein 1A (Homo sapiens), Q14683 (parent)
chain: MGFLKLIEIENFKSYKGRQIIGPFQRFTAIIGPNGSGKSNLMDAISFVLGEKTSNLRVKTLRDLIHGAPVGKPAANRAFVSMVYSEEGAEDRTFARVIVGGSSEYKINNKVVQLHEYSEELEKLGILIKARNFLVFQGAVESIAMKNPKERTALFEEISRSGELAQEYDKRKKEMVKAEEDTQFNYHRKKNIAAERKEAKQEKEEADRYQRLKDEVVRAQVQLQLFKLYHNEVEIEKLNKELASKNKEIEKDKKRMDKVEDELKEKKKELGKMMREQQQIEKEIKEKDSELNQKRPQYIKAKENTSHKIKKLEAAKKSLQNAQKHYKKRKGDMDELEKEMLSVEKARQEFEERMEEESQSQGRDLTLEENQVKKYHRLKEEASKRAATLAQELEKFNRDQKADQDRLDLEERKKVETEAKIKQKLREIEENQKRIEKLEEYITTSKQSLEEQKKLEGELTEEVEMAKRRIDEINKELNQVMEQLGDARIDRQESSRQQRKAEIMESIKRLYPGSVYGRLIDLCQPTQKKYQIAVTKVLGKNMDAIIVDSEKTGRDCIQYIKEQRGEPETFLPLDYLEVKPTDEKLRELKGAKLVIDVIRYEPPHIKKALQYACGNALVCDNVEDARRIAFGGHQRHKTVALDGTLFQKSGVISGGASDLKAKARRWDEKAVDKLKEKKERLTEELKEQMKAKRKEAELRQVQSQAHGLQMRLKYSQSDLEQTKTRHLALNLQEKSKLESELANFGPRINDIKRIIQSREREMKDLKEKMNQVEDEVFEEFCREIGVRNIREFEEEKVKRQNEIAKKRLEFENQKTRLGIQLDFEKNQLKEDQDKVHMWEQTVKKDENEIEKLKKEEQRHMKIIDETMAQLQDLKNQHLAKKSEVNDKNHEMEEIRKKLGGANKEMTHLQKEVTAIETKLEQKRSDRHNLLQACKMQDIKLPLSKGTMDDISQEEGSSQGEDSVSGSQRISSIYAREALIEIDYGDLCEDLKDAQAEEEIKQEMNTLQQKLNEQQSVLQRIAAPNMKAMEKLESVRDKFQETSDEFEAARKRAKKAKQAFEQIKKERFDRFNACFESVATNIDEIYKALSRNSSAQAFLGPENPEEPYLDGINYNCVAPGKRFRPMDNLSGGEKTVAALALLFAIHSYKPAPFFVLDEIDAALDNTNIGKVANYIKEQSTCNFQAIVISLKEEFYTKAESLIGVYPEQGDCVISKVLTFDLTKYPDANPNPNEQ
partner: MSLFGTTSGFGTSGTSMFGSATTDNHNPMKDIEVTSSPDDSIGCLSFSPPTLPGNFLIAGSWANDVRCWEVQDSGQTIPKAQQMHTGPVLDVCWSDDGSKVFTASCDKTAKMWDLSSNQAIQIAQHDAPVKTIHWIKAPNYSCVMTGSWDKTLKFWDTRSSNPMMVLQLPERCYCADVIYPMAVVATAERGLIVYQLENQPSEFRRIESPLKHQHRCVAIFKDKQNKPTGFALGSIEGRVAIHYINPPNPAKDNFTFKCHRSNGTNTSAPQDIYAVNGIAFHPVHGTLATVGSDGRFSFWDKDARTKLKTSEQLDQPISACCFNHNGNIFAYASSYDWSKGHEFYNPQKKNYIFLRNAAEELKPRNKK

Variants of: B1
Settings: with rae1l_human RAE1, P78406

Row | effect of a mutation on the interaction | Variant
1 | decreasing interaction | S966A
2 | decreasing interaction | S957A
